The source of these data is patent US6721663B1, “Method for manipulating protein or DNA sequence data in order to generate complementary peptide ligands” (Proteom Limited, priority 1999, dated 2004).

The target in experiment [1] is T1, IL-1 (Homo sapiens, UniProt P01584). In words: Serum Amyloid IL-1 assay. It is filed as cell-based. The settings on record: FIG. 14. The text has this:
(§1) The program picked out antisense region LITVLNI (SEQ ID No. 8) in the IL-1R receptor.

In experiment [2] the target is T1, IL-1. Description: Direct binding to IL-1 by biosensing techniques.
From the text: as §1

The target of a further experiment is IL-1b (Homo sapiens, UniProt P01584). Description: ESAP assay of IL-1b biological activity. It is filed as cell-based. The settings on record: FIG. 14.
Chain of IL-1b (P01584 117-269): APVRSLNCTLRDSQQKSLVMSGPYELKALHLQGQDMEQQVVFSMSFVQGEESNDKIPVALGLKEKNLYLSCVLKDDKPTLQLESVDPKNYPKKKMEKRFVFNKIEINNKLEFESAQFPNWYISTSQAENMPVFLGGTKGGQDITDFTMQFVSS
From the text: as §1

T1 sequence (P01584 117-269): as above

Regarding “LITVLNI (listed as Homo sapiens) [antisense region in the IL-1R receptor picked out by the ALS program]”, the “inhibition of IL-1 activity in Serum Amyloid IL-1 assay” value in the experiment with IL-1 [1] is “The same effect is also seen”. The “direct binding to IL-1” value in the experiment with IL-1 [2] was “bind directly to IL-1”. Moreover, the “inhibition of the biological activity of IL-1b in ESAP assay” value with IL-1b is “inhibit the biological activity of IL-1b”.

On to “LTILINV (Hypothetical sequence) [scrambled peptide control of LITVLNI, reference compound]”, for which, in the experiment with IL-1b, the “inhibition of the biological activity of IL-1b in ESAP assay” value is reported as “The effect is dependent on the peptide sequence”.
